This is an account of results in a protein production outcome set (Wang et al. 2014).
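Also: failed if final PepcDB status was selected cloned or expressed and not failed if soluble or beyond.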

This data set is described as follows: label from the status in PepcDB records.
On to “VAGKVEARKAALREKLIDLAEAQIEAEGLASLRARELARQADCAVGAIYTHFQDLNALTLEVNGRTFARLGAAVGAVVADGQDDHPNERLIAMSHAYLAFAREHPKLWRALFDVEMRSDGPVPQWYGHAMAQLFSYITTPLAKIFPESDDAELDLMTRTLFSSVHGIVLLGLENRISGVPGEQLKTMIRLLLEQVGR”, for which the protein production entry is “not failed”.
Regarding “MTGEEITAAIHQVLTERMNNRHLDGFGPQSRLNADLYLDSVLMLDLLLHLELDHGITAPEEAIATAAIQTVSDLVELLAGASPATSGASDTAVADGPDVHADVYPDIKVHCVVSCLCDAVKAAGLDHRPMYFGIWDADFAVSDKFELRYHTDHISHGFFCHWFHRLYGVRVTEWYDHSAGKQSNLARLIGLVDARRPTESVMVMLDMFHLPERENKFNQYPFPHYLMVEATPDPETWQVRDPDFRWEGPIAKERILNAVAQPSVGGGYIFDRCTMRLPAAVDIGDYFLACFVSDDNPLIRRLREIVDTHLGCRDGLRLQALGDAVRELPVLSIRKWAYEHGFAFFWRELRLPNDAFLTWCDRIEELALGLPALHLKILRLAQTEDRTCAADIHQTLDRLDALETAIKVKLHEVFVAWCSHQGLTRATPRERRVGAR”, the protein production result was “failed”.
Then “MNVDVLIGEILTLSMMAFALGMDAFSVGLGMGMAKLKRNQVFQIGVIIGLFHVIMPLGGMIAGQFLSGALGALAGYIGGALLLVLGIQMIVASFNKSGEQIISPHGFGLFVFAVGVSLDSFSVGLSLGLYGTKPILTIFLFGLFSMVLTWAGLLLGKKVQTWLGAYSEALGGAILLSFGLKLLLPI”, with “failed”; and “MAQVEAPVIGITVLYFLAIIIIGYYSRQRLKSATDYYVAGRQVGAVVNGLALESTYLSPASMLGLPAYIFILGYPFWWAMSAIIAGMPIATLLTASALRKYAPTSFADYYADRYNDQRLRWLVGIVTVIGAVLYITLSLVGMALFLLAVAKVPYIIGLIVGTIIVMLYVVWGGMIATSWNAAFQAFLMTVAAVIAAAVIVIKLGGLGGFYEAVLANNPKFWNTPSDPEPPHLLSGTWIAVIGWFFVWHYGFATMPYTVVRFFTTMDIKTARRSIFWCTLAAGIFYMALEIIGAASKLMIETGPMGGEGANAVKILQSYMAQYGVGGWTDYSMIAAVEALQNPWVLGILCAGGLAIAMSTAAGWVMVVNTLLTRDWGDMLLKSKFAKEKPVTLARIISVIFLIVGFLVAINPPGLVLDLSGWAFVVIISALGPGLVLGLWWKRATRAAMWTTAIVMTPLHLYAWLKAKLVLGHHAFFFLNDVLFGNAKALITPHQVWAIPVGFLLFIIVSLITKPVEEEAVQKYCVELTKEV”, with “failed”; and “MATLPASKSASKVALTSEVEDEGIKEHTFQEIEKLQDLGINAADINKLKGSGYCTILSLIQTTKKELCNVKGISEAKVDKILEVASKIENCSSFITANELVQKRSKVLKITTGSTVFDQTLGGGIESMCITELFGENRCGKTQVCHTLAVTAQLPKSLNGGNGKVCYIDTEGTFRPEKVCKIAERYGLDGEAVLDNILYARAFTHEHLYQLLAISAAKMCEEPFALLVVDSIISLFRVDFSGRGELSERQQKLNKTMSILSKLSEQFNIAILITNQVMSDPGATMTFIANPMKPVGGHVIGHASTIRLSLRKGKGDQRVCKVYDAPNLPEVECIFQLSDKGVIDATD”, with “failed”.
For “MRGRFFFRSFEATLIGSEFLVSPETPGTRFAKAPSFRSKTEKDLCSAHGAAASGVLPLGLLEELVRSSPRSSQASGPAGSRQPAQRAPGHQVPAAKMLELLVASLSLALAFFALLDGWYLVRVPCAVLRARLLQPRVRDLLAEQRYAGRVLPSDLDLLLHMNNARYLREADVARAAHLTRCGVLGALRDLNAHTVLAASCARYRRSLRLFEPFEVHTRLQGWDDRAFYLEARFVSLRDGFVCALLRFRQHVLGTSPDRVVQHLCKRRVEPPELPEDLKHWISYNETSSQLLRAESGLSDRKDQ”, the protein production result is “failed”.
In the case of “MKLIASNKKAYFDYEILETLEAGLALLGSEVKALRQTRVNLKDNFVKIIKGEAFLFGVHISYLDTIHAYYKPNERRERKLLLHKKQLLKWQIEASKERLSIVGLKLYFNQRNRAKIQIALVKGKRLHDKRQSLKEKALNKEILADLKHHFKG”, the protein production entry was “failed”.
Then “MSFTGKDYSRFRSQQQRGNPHSSEGNTSAVHGTGQNSRPQTPINQASGASPQQGNQSPNGSVNHANPLASRLNDITLDELLDSLGRAGLLRLDPNRPPGTFWFEDDPSVPATVRSIFERDFKELHANWSMTPQHVVDRWFETFAQMYNWDKTINKRVKTEFEAKLKERMTDQVCRWKGKWREKGDAAMPRWFDPAVWAGLISFWRDPKSELKSINSRNARLHDPDGLGIHKHRSGQTSYKAHARKRCELTGETTPNFLVLLDKTHRKPDGSFIDGKSEEIYNEVSSRIQEESSQLCSNNTTESTASGGGSKEEREDIWGWFIAARSRMSSHWSFSSSRRSG”, with “failed”; and “NATTLPEALKLMQYIGDAIGTIRDPQELFRTVTDKLRLLFAFDSAVIITIDRERREASVFFEMLRFELPEQLRHQTRSIAGTWLEGHLDDRTVTVASIARDIPSFGADGAPLLWTLHELGMRQIVLSPLRSGGRVIGFLSFVSAEEKLWSDGDKSLLSGVSSSIAIAVSNALAYEELRQREAETSMQLAINNALFTI”, with “not failed”; and “MANVDRRQMLLLSGLGATAAVLPVPRAAAVPNQTAASYVFADEFDGPAGSAPSAAKWTIAKARETIQDPTYWEQPGRIGQYRNDRRNVFLDGKSNLVIRAAKDGDTYYSAKLASVWEGGAGHTWEARIKFNCLTAGAWPAFWLGNTGEGELDIIEWYGNGSWPSATTVHAKSNGGEWKTHNIAVDNGWHRWRTQWDAEGARFWLDYTDGAQPYFEVAASSLPDWPFDQPGYTMFVVLNLAVAGSGGGDPSGGTYPADMLVDWVRVW”, with “not failed”.
Then “MTMDNFSIRPMKRSELDVVIDWAAIEGWNPGIYDAECFYQADQCGFFVGELNNELVASISAVAYSQHFAVIGFYIVKEQFRGRGFGMKMWRTAMAYLGSERNISLDGVIAQQENYKKSGFQIAYRHIRYQV”, with “failed”; and “MEVSENATTRGSLALVSIILPVHNAEQWLDECLMSVLQQDFEGAMELSVFNDASKDKSRAIIEKWKVKLEDSGISVVIGGHDSPSPRGVGYSKNQAVAQSTGSYLCFLDSDDVMMPQRVRMQYEAAGQHPTSIIGCQVRRDPPDSTERYTRWINHLTSDQLLTQVFTSHGPTVIMPTWFCSRAWFSHVGPFDEGGQGVPEDLLFFYEHLRKGGGVFRVDHSLLLYRYHLYAATHSVLEMTIWTHRVHFLEEQVLPHWKSFTIWNAGKQGRKLYRSLTAASRHKVVAFSDVDENKIRKGFYCYEDSQERPKPKVPILHFQAAQSPFVICVKLDLTGGEFEDNLKSLDLQEGRDFVHFS”, with “failed”.
For “MKRSTRFQQRSLFAIGGLGLLIGVAFVLVQFRATLIFTVFLYYASRPIYRKLESVSTPSYFSEYSLPYRRQILAVTTISVFLLPFLLLFTYTLALVVPAVQQFIGQNDLASGYLSAIQSADSGGLPEPIAGLQISDLLDMSPEEIVTILNAPSVRTWIEQTLGTLISSIGVFADVGIQAFLLLSGTYYLLTDGPRLSRWLFDHFDESGVVESYAIAVDDELSSILFGNILNALVTGIIGIVVFSAYNSISPAAVQVPFAPLVGALTGAGSLIPVVGMKIVYFPVGAILTVGAVASGQATAIGYVLLFLILAFVVVDTIPDFLIRPYVSGNRTHVGLLMFAYILGPIVFGAYGIFLGPILLVLVAQFFRTVAPYVATGEPPDQSKLYEY”, the protein production result was “failed”.
For the sequence “SDESGMRTYVRTLSFILSKAVADILPGSKLFIEHSLSNGYYCQIKNAHMITPGEIVRIKERMESLIVADIPFRAHCERTEEVAAMFRSMGYEDKADLLETKGMP”, the protein production entry is reported as “failed”.
In the case of “MMTRNKEFPMQMQSVTPARLVTTGLAFGESPRWHGGRLWVCNWGTSEIIATDAHGNREIMLIVPAVLPYSIDWLQDGRLLVVSGREGLLLRQEVDGKLVTHADLRGLSKSPWNEIVVDGRGNIYVNGGGPAPAAGEYFGPGTVVLITADGAVRQVADDIAFANGMAVTPDNKTLILAESHGNRLTAFDIAADGSLSNRRAWADLDGYPDGICLDAEGAVWYADVPNKHCVRVREGGEVLQTVTVDRGCFACMLGGADRRTLFIVAAEWRGFEHMVGDARTGQVLSVDAPAPGVGWP”, the protein production result is reported as “failed”.
Then “GEKLLNAASTRGRLCVGIDPHESLLTSWGLPVNVDGLAEFSRACVEAFADTVALVKPQVAFYERFGSAGFAILEETIQTLRERGCLVVSDAKRGDIGSTMAGYASAWLDPASPLSSDAVTVSPYLGFHSLDPVFELAEQHGRGVFVLAATSNPEARELQDQQNADGVSISQQIVDQAAALNAPYMAQGKAGNIGVVIGATLSKPPRLSTLGGAILMPGVGAQGGTASDVDEIAGDMAHLAFPNVSRSILATGPDIAEMKNSVAKN”, with “failed”.
As for “MDVMRSVLGMVVLLTIAFLLSVNKKKISLRTVGAALVLQVVIGGIMLWLPPGRWVAEKVAFGVHKVMAYSDAGSAFIFGSLVGPKMDTLFDGAGFIFGFRVLPAIIFVTALVSILYYIGVMGILIRILGGIFQKALNISKIESFVAVTTIFLGQNEIPAIVKPFIDRLNRNELFTAICSGMASIAGSTMIGYAALGVPVEYLLAASLMAIPGGILFARLLSPATESSQVSFNNLSFTETPPKSIIEAAATGAMTGLKIAAGVATVVMAFVAIIALINGIIGGVGGWFGFEHASLESILGYLLAPLAWVMGVDWSDANLAGSLIGQKLAINEFVAYLNFSPYLQTAGTLDAKTVAIISFALCGFANFGSIGVVVGAFSAVAPHRAPEIAQLGLRALAAATLSNLMSATIAGFFIGLA”, the protein production result was “failed”.
For “MVKKSYVINWARDLANRGVGVNYDGAFGSQCVDLPFWILGKFFGRPISGNAIDLLNSAKAAGYQVIYDAPGVNPRVGDIFVMHSIAYDGKDYGHTGLVIEDSDGHSIKTIEQNVDGNADNLYVGGPARYRTRSFNGIIGWIRPPYENEILENKREETDMRDFFVITNSEYTFAGVHYAKGAVLHVSPTQKRAFWVIADQENFIKQVNKNIEYVEKNASPAFLQRIVEIYQVKFEGKNVH”, the protein production entry is on record as “not failed”.
On to “MEKILDLLMSFVKEDEGKLDLASFPLRNTTAGAHLLLKTENVVASGIEVSRMFLEKMGLLSKFNVEDGEYLEGTGVIGEIEGNTYKLLVAERTLLNVLSVMFSVATTTRRFAEKLKHAKIAATRKILPGLGVLQKIAVVHGGGDPHRLDLSGCVMIKDNHLKMYGSAERAVQEVRKIIPFTTKIEVEVENLEDALRAVEAGADIVMLDNLSPEEVKDISRRIKDINPNVIVEVSGGITEENVSLYDFETVDVISSSRLTLQEVFVDLSLEIQR”, for which the protein production result is “not failed”.
On to “MLHWISLLCAGCLEMAGVALMNQYAKEKSVKWVLLIIVGFAASFSLLSYAMETTPMGTAYAVWTGIGTAGGALIGILFYKEQKDAKRIFFIALILCSAVGLKILS”, for which the protein production result is given as “failed”.
As for “MNYFPDEVIEHVFDFVASHKDRNSISLVCKSWHKIERFSRKEVFIGNCYAINPERLIRRFPCLKSLTLKGKPHFADFNLVPHEWGGFVHPWIEALARSRVGLEELRLKRMVVTDESLDLLSRSFANFKSLVLVSCEGFTTDGLASIAANCRHLRELDLQENEIDDHRGQWLNCFPDSCTTLMSLNFACLKGETNVAALERLVARSPNLKSLKLNRAVPLDALARLMSCAPQLVDLGVGSYENEPDPESFAKLMTAIKKYTSLRSLSGFLEVAPLCLPAFYPICQNLISLNLSYAAEIQGNHLIKLIQLCKRLQRLWILDSIGDKGLAVVAATCKELQELRVFPSDVHGEEDNNASVTEVGLVAISAGCPKLHSILYFCKQMTNAALIAVAKNCPNFIRFRLCILEPHKPDHITFQSLDEGFGAIVQACKGLRRLSVSGLLTDQVFLYIGMYAEQLEMLSIAFAGDTDKGMLYVLNGCKKMRKLEIRDSPFGNAALLADVGRYETMRSLWMSSCEVTLGGCKRLAQNSPRLNVEIINENENNGMEQNEEDEREKVDKLYLYRTVVGTRKDAPPYVRIL”, the entry is “failed”.
